Reference: patent US20240100174A1, “PROTEIN-PEG INTERACTIONS THAT REDIRECT THE THERMAL UNFOLDING PATHWAY OF PEGYLATED HUMAN GALECTIN-3C” (UNIVERSITY OF FLORIDA RESEARCH FOUNDATION, INCORPORATED, priority 2022, published 2024)
Where “and” joins values, the source holds several entries; their conditions need not be identical. Equal entries are not always repeated.

Columns and labels:
[1] = Rotational correlation time from 15N T1/T2 NMR relaxation; format: physicochemical; conditions: 30° C.; error is 95% confidence interval
Protocol: NMR data were recorded for temperatures between 30° C. and 55° C., as noted in the main text, with a Broker Avance™ III spectrometer operating at 800 MHz, running Topspin™ version 3.6.3 and equipped with a 5 mm TXI cryoprobe. The temperature was calibrated using a standard sample of 4% methanol in d4-MeOH. 2D [^15N, ^1H]-HSQC spectra were recorded using a gradient sensitivity-enhanced pulse sequence (hsqcetf3gpsi) with 2048 points in the direct dimension, between 180 to 260 points in the indirect dimension and between 32 to 736 scans per experiment, depending on the final sample concentration to achieve similar signal-to-noise ratios for all data. The ^15N T1 and T2 relaxation measurements were acquired with 1D ^15N-edited HSQC-based experiments (hsqct1etf3gpsi3d and hsqct2etf3gpsi3d) with 2048 points and 512 scans per experiment. For T1 measurements, experiments were recorded with relaxation delays of 0.02, 0.05, 0.1, 0.2, 0.3, 0.4, 0.6, 0.8,1, 1.2 or 1.5 s. […]
The rotational correlation times τc of Gal3C[T243C] and Gal3C[T243C]-PEG was then determined from T1 and T2 using the following spectral density function (j(ω)) equations […]
To investigate whether PEG and Gal3C[T243C] behaved more as two independent domains within the conjugated protein or if they interacted more closely, the rotational correlation times (τc) for Gal3C[T243C] and Gal3C[T243C]-PEG at 30° C. were determined. […]

[2] = Variable temperature circular dichroism (CD) thermal unfolding; format: physicochemical; conditions: for fitted melting temperature (Tm): CD at 220 nm
Protocol: CD spectroscopic data were recorded with an Applied Photophysics™ Chirascan spectrophotometer equipped with a Quantum Northwestern Peltier temperature control device and operating with Chirascan v4.7.0 and Pro-Data™ Viewer software. Samples were prepared in PBS at final concentrations of 10 μM. All samples were contained in 2 mm tapered quartz cuvettes, and a temperature probe was inserted through the cuvette cap to monitor the sample temperature in real time. The following parameters were used for constant temperature experiments: CD signal measured in millidegrees, bandwidth of 1.0 nm, wavelength scan from 200-280 nm, step size of 2.0 nm. Spectra were background subtracted against the sample buffer. For thermal unfolding experiments, a linear thermal ramp was applied from 30° C. to 90° C. at 1° C. per minute. All spectra were measured in triplicate, and data were normalized to account for slight differences in protein concentration.
To calculate melting temperatures of unconjugated Gal3C, Gal3C[T243C], and Gal3C[T243C] variants containing lysine replacements, the normalized data were fit to a Boltzmann sigmoidal function in Origin v8.5. For the data fitting, no parameters were fixed, and the ‘x’ parameter defined as the center of the data was interpreted as the melting temperature (Tm). Variable temperature CD data of PEGylated Gal3C[T243C] and Gal3C[T243C] variants were fit with a sum of two Boltzmann sigmoidal functions, as shown below:
where ‘A1’, ‘A2’, and ‘A3’ represent three plateaus of the CD signal, ‘dx1’ and ‘dx2’ are the change in x between the plateaus for each melting transition, and ‘x1’ and ‘x2’ are the two Tm values extracted by the fit for the first and second unfolding transitions, respectively. Because the third plateau, A3, occurred at temperatures higher than the experimentally accessible range, this value was estimated. A single wavelength for plotting on the y-axis was selected by calculating the wavelength of greatest CD signal change for each PEGylated construct.
To record a CD spectrum of Gal3C[T243C] with free PEG, a stock solution of methoxy-PEG (mPEG) in 1×PBS was added immediately before the experiment to a solution containing protein (20 μM, 1 ×PBS) to a final concentration of 22 μM mPEG. All thermal melt parameters were the same as listed in the above described experiments.
CD spectroscopic data were recorded with an Applied Photophysics Chirascan spectrophotometer equipped with a Quantum Northwestern Peltier temperature control device and operating with Chirascan v4.7.0 and Pro-Data Viewer software, following procedures used in our previous study.^4 Spectra were background subtracted against the sample buffer. For thermal unfolding experiments, a linear thermal ramp was applied from 30° C. to 90° C. at 1° C. per minute with samples concentrated to 10 μM in PBS. All spectra were measured in triplicate, and data were normalized to account for slight differences in protein concentration.
Full wavelength (200-280 nm) CD spectra for each construct (FIG. 43) were used to calculate a wavelength of greatest change (222 or 224 nm) to create single wavelength CD vs. temperature plots (FIG. 30H-J and FIG. 31F-G). The single wavelength CD signal vs. temperature plot of Gal3C[T243C] used data acquired at 220 nm, which was the wavelength of greatest change for the unmodified protein. To calculate melting temperatures, the normalized data were fit to a Boltzmann sigmoidal function in Origin v8.5. For the data fitting, no parameters were fixed, and the ‘x’ parameter defined as the center of the data was interpreted as the melting temperature (Tm).

B1: Gal3C[T243C]: Gal3C variant with a single extrinsic cysteine at position 243; SEQ ID NO: 11 (protein)
chain: MAGPLIVPYNLPLPGGVVPRMLITILGTVKPNANRIALDFQRGNDVAFHFNPRFNENNRRVIVCNTKLDNNWGREERQSVFPFESGKPFKIQVLVEPDHFKVAVNDAHLLQYNHRVKKLNEISKLGISGDIDLTSASYCMILEHHHHHH
For B1, the “rotational correlation time (τc)” value [1] was 10.7 (±0.7) ns, the “fitted melting temperature (Tm)” value ([2]; 20 μM protein in the absence of free PEG-OH) was 57.5 °C and the “fitted melting temperature (Tm)” value ([2]; 20 μM protein in the presence of 22 μM free PEG-OH) was 57.7 °C. For the same molecule, the “Tm1 ± StDev” value ([2]; normalized CD at 220 nm vs. temperature, 3 replicates averaged, ramp 30-90° C. at 1° C. per minute) was 58.1 °C and 58.1 ± 0.5 °C, the “thermal unfolding behaviour / formation of unfolding intermediate” value ([2]; result in words, for polymer conjugates the selected SEC fractions) was “single cooperative unfolding transition” and the “Tm / Tm1” value ([2]; values of Summary of Results, Tm for unconjugated protein, Tm1 for PEG conjugate) was 58.0 °C.
